In paper PMC10143413:

Assays:
[1] = molecular target: Aldolase A, purified from rabbit skeletal muscle (rabbit) (UniProt P00883); assay: SPR; Biacore T200, 25 °C; GAPDH, LDH or aldolase A amine-coupled to a CM5 chip, PKM1 as analyte in 0.05 M potassium phosphate buffer pH 7.4, 10 µL/min for 5 min; global fit to the 1:1 binding model
[2] = molecular target: Lactate dehydrogenase, purified from rabbit skeletal muscle (rabbit) (UniProt P13491); assay: as above
[3] = molecular target: Pyruvate kinase PKM1, purified from rabbit skeletal muscle (rabbit) (UniProt P11974); assay: SPR; Biacore T200, 25 °C; PKM1 amine-coupled to a CM5 chip, creatine kinase as analyte in 0.05 M potassium phosphate buffer pH 7.4, 10 µL/min for 5 min; global fit to the 1:1 binding model
Sequence of Pyruvate kinase PKM1, purified from rabbit skeletal muscle (rabbit) (P11974 whole entry): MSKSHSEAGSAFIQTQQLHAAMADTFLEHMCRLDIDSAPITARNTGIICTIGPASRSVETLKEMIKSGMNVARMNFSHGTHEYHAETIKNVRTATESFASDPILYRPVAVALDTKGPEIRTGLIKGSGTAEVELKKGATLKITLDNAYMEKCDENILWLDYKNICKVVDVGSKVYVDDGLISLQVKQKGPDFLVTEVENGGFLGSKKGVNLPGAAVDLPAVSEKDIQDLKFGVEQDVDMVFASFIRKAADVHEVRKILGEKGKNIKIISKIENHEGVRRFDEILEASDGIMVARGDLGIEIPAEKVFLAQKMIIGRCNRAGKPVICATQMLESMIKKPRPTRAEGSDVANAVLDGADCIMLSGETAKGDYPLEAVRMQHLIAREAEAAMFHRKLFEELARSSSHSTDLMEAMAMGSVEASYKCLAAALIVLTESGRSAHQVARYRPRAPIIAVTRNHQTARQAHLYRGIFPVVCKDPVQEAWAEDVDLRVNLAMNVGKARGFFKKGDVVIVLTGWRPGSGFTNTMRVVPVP

Sequence of Pyruvate kinase PKM1, purified from rabbit skeletal muscle, P11974-1 1-531 (enzyme; other documents disagree on this pair) (P11974 whole entry): as above
Sequence of Pyruvate kinase PKM1, purified from rabbit skeletal muscle (P11974 whole entry): as above
Sequence of Aldolase A, purified from rabbit skeletal muscle (rabbit) (P00883 whole entry): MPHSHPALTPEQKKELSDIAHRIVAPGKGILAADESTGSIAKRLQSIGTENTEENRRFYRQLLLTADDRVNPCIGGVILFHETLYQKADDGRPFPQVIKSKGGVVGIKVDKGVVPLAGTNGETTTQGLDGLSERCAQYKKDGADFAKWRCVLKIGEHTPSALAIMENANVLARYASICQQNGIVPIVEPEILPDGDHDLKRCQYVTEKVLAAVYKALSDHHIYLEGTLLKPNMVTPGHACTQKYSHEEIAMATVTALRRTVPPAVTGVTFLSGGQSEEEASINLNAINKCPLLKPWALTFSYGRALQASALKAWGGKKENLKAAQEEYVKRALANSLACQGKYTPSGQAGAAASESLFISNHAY

Substance: Pyruvate kinase PKM1, purified from rabbit skeletal muscle, P11974-1 1-531 (enzyme; other documents disagree on this pair)
- Kd [1]: 1410 nM
- koff [1]: 0.00238 s⁻¹
- kon [1]: 1690 M⁻¹ s⁻¹

Substance: Pyruvate kinase PKM1, purified from rabbit skeletal muscle (from UniProt P11974-1 1-531) (enzyme)
- Kd [2]: 4800 nM
- koff [2]: 0.00657 s⁻¹
- kon [2]: 1370 M⁻¹ s⁻¹

Substance: Creatine kinase from rabbit muscle (from UniProt P00563 1-381) (enzyme)
- Kd [3]: 10.7 nM
- koff [3]: 0.000924 s⁻¹
- kon [3]: 86400 M⁻¹ s⁻¹
